Values of other authors in article PMC3433420.
Like-named read-outs stand apart in the source and are kept apart here.

Columns and labels:
Conditions in all cases: cited from earlier work
PIK3R1-NC (Homo sapiens) [1] = target: PIK3R1-NC (Homo sapiens) (UniProt P27986)
TENC1 (Homo sapiens) [2] = target: TENC1 (Homo sapiens) (UniProt Q63HR2)
SLA (Homo sapiens) [3] = target: SLA (Homo sapiens) (UniProt Q13239)
TENC1 (Homo sapiens) [4] = target: TENC1 (Homo sapiens) (UniProt Q63HR2); remark: listed apart in the source
GRB7 (Homo sapiens) [5] = target: GRB7 (Homo sapiens) (UniProt Q14451)
Chain of GRB7 (Homo sapiens) (Q14451 426-532): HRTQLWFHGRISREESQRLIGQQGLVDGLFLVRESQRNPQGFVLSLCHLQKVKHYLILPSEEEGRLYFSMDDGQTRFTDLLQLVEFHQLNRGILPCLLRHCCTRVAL

PIK3R3-N (Homo sapiens) [6] = target: PIK3R3-N (Homo sapiens) (UniProt Q92569)
ABL2 (Homo sapiens) [7] = target: ABL2 (Homo sapiens) (UniProt P42684)
Chain of ABL2 (Homo sapiens) (P42684 168-268): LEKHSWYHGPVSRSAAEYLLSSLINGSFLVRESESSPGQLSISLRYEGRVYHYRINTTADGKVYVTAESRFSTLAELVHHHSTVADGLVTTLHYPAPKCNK

PIK3R2-N (Homo sapiens) [8] = target: PIK3R2-N (Homo sapiens) (UniProt O00459)
Chain of PIK3R2-N (Homo sapiens) (O00459 325-721): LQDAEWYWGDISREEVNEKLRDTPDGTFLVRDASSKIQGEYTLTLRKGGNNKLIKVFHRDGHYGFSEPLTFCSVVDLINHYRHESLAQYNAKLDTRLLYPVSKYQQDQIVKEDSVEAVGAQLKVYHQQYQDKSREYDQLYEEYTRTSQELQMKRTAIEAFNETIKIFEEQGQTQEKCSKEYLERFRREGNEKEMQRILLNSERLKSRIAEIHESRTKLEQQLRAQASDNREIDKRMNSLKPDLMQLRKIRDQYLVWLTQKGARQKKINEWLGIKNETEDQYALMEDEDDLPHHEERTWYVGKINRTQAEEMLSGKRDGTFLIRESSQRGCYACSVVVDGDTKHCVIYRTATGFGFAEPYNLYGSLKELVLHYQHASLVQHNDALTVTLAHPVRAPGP

PIK3R1-N (Homo sapiens) = PIK3R1-N (Homo sapiens) (UniProt P27986)
Chain of PIK3R1-N (Homo sapiens) (P27986 328-723): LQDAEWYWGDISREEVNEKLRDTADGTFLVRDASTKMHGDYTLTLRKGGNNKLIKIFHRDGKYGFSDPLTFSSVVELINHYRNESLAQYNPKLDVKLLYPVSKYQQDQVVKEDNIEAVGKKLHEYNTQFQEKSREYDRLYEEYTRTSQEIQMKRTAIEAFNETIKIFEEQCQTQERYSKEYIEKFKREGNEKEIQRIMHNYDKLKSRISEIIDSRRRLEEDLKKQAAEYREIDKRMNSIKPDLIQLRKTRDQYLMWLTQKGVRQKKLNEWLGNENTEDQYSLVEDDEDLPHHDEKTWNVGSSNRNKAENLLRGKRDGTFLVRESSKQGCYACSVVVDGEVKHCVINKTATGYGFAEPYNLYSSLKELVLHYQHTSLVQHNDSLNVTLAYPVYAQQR

PIK3R3-NC (Homo sapiens) [9] = target: PIK3R3-NC (Homo sapiens) (UniProt Q92569)
PIK3R2-NC (Homo sapiens) = PIK3R2-NC (Homo sapiens) (UniProt O00459)
Chain of PIK3R2-NC (Homo sapiens) (O00459 325-721): as the sequence (O00459 325-721) above

SYK-NC (Homo sapiens) [10] = target: SYK-NC (Homo sapiens) (UniProt P43405)
RASA1-N (Homo sapiens) [11] = target: RASA1-N (Homo sapiens) (UniProt P20936)
Chain of RASA1-N (Homo sapiens) (P20936 176-446): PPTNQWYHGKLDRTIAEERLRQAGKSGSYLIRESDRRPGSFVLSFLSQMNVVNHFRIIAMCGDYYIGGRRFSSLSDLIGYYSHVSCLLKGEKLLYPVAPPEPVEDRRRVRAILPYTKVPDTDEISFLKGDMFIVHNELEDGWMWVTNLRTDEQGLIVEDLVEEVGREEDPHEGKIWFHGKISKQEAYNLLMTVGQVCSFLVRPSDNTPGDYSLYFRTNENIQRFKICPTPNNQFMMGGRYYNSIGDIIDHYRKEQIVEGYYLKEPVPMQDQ

PIK3R2-N (Homo sapiens) [12] = target: PIK3R2-N (Homo sapiens) (UniProt O00459); remark: listed apart in the source
PIK3R3-N (Homo sapiens) [13] = target: PIK3R3-N (Homo sapiens) (UniProt Q92569); remark: listed apart in the source
PIK3R1-NC (Homo sapiens) [14] = target: PIK3R1-NC (Homo sapiens) (UniProt P27986); remark: listed apart in the source
PIK3R3-C (Homo sapiens) = PIK3R3-C (Homo sapiens) (UniProt Q92569)
PIK3R3-NC (Homo sapiens) [15] = target: PIK3R3-NC (Homo sapiens) (UniProt Q92569); remark: listed apart in the source
TNS4 (Homo sapiens) = TNS4 (Homo sapiens) (UniProt Q8IZW8)
GRB10 (Homo sapiens) [16] = target: GRB10 (Homo sapiens) (UniProt Q13322)
Chain of GRB10 (Homo sapiens) (Q13322 488-579): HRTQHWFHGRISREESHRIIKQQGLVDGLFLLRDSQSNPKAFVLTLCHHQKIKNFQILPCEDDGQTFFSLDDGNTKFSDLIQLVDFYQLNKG

BLK (Homo sapiens) = BLK (Homo sapiens) (UniProt P51451)
RASA1-NC (Homo sapiens) [17] = target: RASA1-NC (Homo sapiens) (UniProt P20936)
Chain of RASA1-NC (Homo sapiens) (P20936 176-446): as the sequence (P20936 176-446) above

PIK3R3-NC (Homo sapiens) [18] = target: PIK3R3-NC (Homo sapiens) (UniProt Q92569); remark: listed apart in the source
PIK3R1-NC (Homo sapiens) [19] = target: PIK3R1-NC (Homo sapiens) (UniProt P27986); remark: listed apart in the source
SH2D3C (Homo sapiens) = SH2D3C (Homo sapiens) (UniProt Q8N5H7)
ABL2 (Homo sapiens) [20] = target: ABL2 (Homo sapiens) (UniProt P42684); remark: listed apart in the source
SHC2-PTB (Homo sapiens) = SHC2-PTB (Homo sapiens) (UniProt P98077)
SOCS1 (Homo sapiens) = SOCS1 (Homo sapiens) (UniProt O15524)
SH2B3 (Homo sapiens) = SH2B3 (Homo sapiens) (UniProt Q9UQQ2)
RASA1-N (Homo sapiens) [21] = target: RASA1-N (Homo sapiens) (UniProt P20936); remark: listed apart in the source
FES (Homo sapiens) = FES (Homo sapiens) (UniProt P07332)
PLCG2-NC (Homo sapiens) [22] = target: PLCG2-NC (Homo sapiens) (UniProt P16885)
Chain of PLCG2-NC (Homo sapiens) (P16885 527-740): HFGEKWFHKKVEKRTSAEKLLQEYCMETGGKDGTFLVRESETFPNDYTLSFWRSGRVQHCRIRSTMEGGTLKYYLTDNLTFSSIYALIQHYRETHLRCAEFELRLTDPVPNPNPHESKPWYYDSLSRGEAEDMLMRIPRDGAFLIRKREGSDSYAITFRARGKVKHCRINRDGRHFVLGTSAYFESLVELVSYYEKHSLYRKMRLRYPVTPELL

SH2B (Homo sapiens) = SH2B (Homo sapiens) (UniProt Q9NRF2)
RASA1-NC (Homo sapiens) [23] = target: RASA1-NC (Homo sapiens) (UniProt P20936); remark: listed apart in the source
SH2D2A (Homo sapiens) = SH2D2A (Homo sapiens) (UniProt Q9NP31)
Chain of SH2D2A (Homo sapiens) (Q9NP31 90-191): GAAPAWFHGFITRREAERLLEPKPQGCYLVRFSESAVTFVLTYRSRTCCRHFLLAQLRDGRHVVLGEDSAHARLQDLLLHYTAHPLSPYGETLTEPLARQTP

PTPN6-NC (Homo sapiens) = PTPN6-NC (Homo sapiens) (UniProt P29350)
Chain of PTPN6-NC (Homo sapiens) (P29350 1-218): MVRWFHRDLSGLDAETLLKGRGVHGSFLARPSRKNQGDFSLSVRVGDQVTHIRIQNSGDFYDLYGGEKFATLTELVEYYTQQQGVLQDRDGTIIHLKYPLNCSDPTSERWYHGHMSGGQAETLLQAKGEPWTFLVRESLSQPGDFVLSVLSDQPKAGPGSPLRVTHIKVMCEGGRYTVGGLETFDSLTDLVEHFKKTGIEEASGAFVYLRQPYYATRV

ITK (Homo sapiens) = ITK (Homo sapiens) (UniProt Q08881)
GRB10 (Homo sapiens) [24] = target: GRB10 (Homo sapiens) (UniProt Q13322); remark: listed apart in the source
SLA (Homo sapiens) [25] = target: SLA (Homo sapiens) (UniProt Q13239); remark: listed apart in the source
RASA1-N (Homo sapiens) [26] = target: RASA1-N (Homo sapiens) (UniProt P20936); remark: listed apart in the source
SYK-NC (Homo sapiens) [27] = target: SYK-NC (Homo sapiens) (UniProt P43405); remark: listed apart in the source
ZAP70-NC (Homo sapiens) = ZAP70-NC (Homo sapiens) (UniProt P43403)
ABL2 (Homo sapiens) [28] = target: ABL2 (Homo sapiens) (UniProt P42684); remark: listed apart in the source
SOCS2 (Homo sapiens) = SOCS2 (Homo sapiens) (UniProt O14508)
Chain of SOCS2 (Homo sapiens) (O14508 43-161): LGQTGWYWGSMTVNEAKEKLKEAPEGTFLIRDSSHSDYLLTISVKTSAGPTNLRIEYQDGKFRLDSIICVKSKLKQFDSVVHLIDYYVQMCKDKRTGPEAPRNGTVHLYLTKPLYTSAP

LCK (Homo sapiens) = LCK (Homo sapiens) (UniProt P06239)
Chain of LCK (Homo sapiens) (P06239 122-229): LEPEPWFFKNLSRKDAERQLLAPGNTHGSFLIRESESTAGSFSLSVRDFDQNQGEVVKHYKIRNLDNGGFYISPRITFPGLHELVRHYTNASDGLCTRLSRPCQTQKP

SRC (Homo sapiens) = SRC (Homo sapiens) (UniProt P12931)
GRB7 (Homo sapiens) [29] = target: GRB7 (Homo sapiens) (UniProt Q14451); remark: listed apart in the source
YES1 (Homo sapiens) = YES1 (Homo sapiens) (UniProt P07947)
SHC1-PTB (Homo sapiens) = SHC1-PTB (Homo sapiens) (UniProt P29353)
Chain of SHC1-PTB (Homo sapiens) (P29353 483-583): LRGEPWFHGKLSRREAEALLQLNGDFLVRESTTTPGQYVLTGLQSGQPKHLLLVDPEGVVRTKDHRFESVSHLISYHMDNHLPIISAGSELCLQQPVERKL

PLCG2-NC (Homo sapiens) [30] = target: PLCG2-NC (Homo sapiens) (UniProt P16885); remark: listed apart in the source

Chain of PIK3R1-NC (Homo sapiens) (P27986 328-723): as the sequence (P27986 328-723) above
Chain of TENC1 (Homo sapiens) (Q63HR2 1135-1252): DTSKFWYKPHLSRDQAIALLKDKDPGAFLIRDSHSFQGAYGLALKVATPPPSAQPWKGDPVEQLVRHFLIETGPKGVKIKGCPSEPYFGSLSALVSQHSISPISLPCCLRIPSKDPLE
Chain of SLA (Homo sapiens) (Q13239 79-180): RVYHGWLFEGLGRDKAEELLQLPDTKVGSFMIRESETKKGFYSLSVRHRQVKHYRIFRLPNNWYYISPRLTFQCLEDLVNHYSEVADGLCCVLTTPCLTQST

…pYEYMNRQR
apparent Kd (screen) (PIK3R1-NC (Homo sapiens) [1]): 43 nM | apparent Kd (screen) (TENC1 (Homo sapiens) [2]): 1710 nM | apparent Kd (screen) (SLA (Homo sapiens) [3]): 2000 nM | apparent Kd (screen) (TENC1 (Homo sapiens) [4]): 1620 nM | apparent Kd (screen) (GRB7 (Homo sapiens) [5]): 999 nM | apparent Kd (screen) (PIK3R3-N (Homo sapiens) [6]): 171 nM | apparent Kd (screen) (ABL2 (Homo sapiens) [7]): 357 nM | apparent Kd (screen) (PIK3R2-N (Homo sapiens) [8]): 151 nM | apparent Kd (screen) (PIK3R1-N (Homo sapiens)): 296 nM | apparent Kd (screen) (PIK3R3-NC (Homo sapiens) [9]): 122 nM | apparent Kd (screen) (PIK3R2-NC (Homo sapiens)): 99 nM | apparent Kd (screen) (SYK-NC (Homo sapiens) [10]): 1300 nM | apparent Kd (screen) (RASA1-N (Homo sapiens) [11]): 1040 nM | apparent Kd (screen) (PIK3R2-N (Homo sapiens) [12]): 199 nM | apparent Kd (screen) (PIK3R3-N (Homo sapiens) [13]): 157 nM | apparent Kd (screen) (PIK3R1-NC (Homo sapiens) [14]): 33 nM | apparent Kd (screen) (PIK3R3-C (Homo sapiens)): 130 nM | apparent Kd (screen) (PIK3R3-NC (Homo sapiens) [15]): 151 nM

…pYRALMDEEd
apparent Kd (screen) (TNS4 (Homo sapiens)): 2000 nM | apparent Kd (screen) (GRB10 (Homo sapiens) [16]): 1690 nM | apparent Kd (screen) (BLK (Homo sapiens)): 191 nM | apparent Kd (screen) (RASA1-NC (Homo sapiens) [17]): 1650 nM | apparent Kd (screen) (PIK3R3-NC (Homo sapiens) [18]): 968 nM | apparent Kd (screen) (PIK3R1-NC (Homo sapiens) [19]): 239 nM | apparent Kd (screen) (SH2D3C (Homo sapiens)): 2000 nM | apparent Kd (screen) (ABL2 (Homo sapiens) [20]): 2000 nM | apparent Kd (screen) (SHC2-PTB (Homo sapiens)): 978 nM | apparent Kd (screen) (SOCS1 (Homo sapiens)): 2000 nM | apparent Kd (screen) (SH2B3 (Homo sapiens)): 1360 nM | apparent Kd (screen) (RASA1-N (Homo sapiens) [21]): 1060 nM | apparent Kd (screen) (FES (Homo sapiens)): 1230 nM | apparent Kd (screen) (PLCG2-NC (Homo sapiens) [22]): 1500 nM | apparent Kd (screen) (SH2B (Homo sapiens)): 2000 nM | apparent Kd (screen) (RASA1-NC (Homo sapiens) [23]): 1380 nM | apparent Kd (screen) (SH2D2A (Homo sapiens)): 2000 nM | apparent Kd (screen) (PTPN6-NC (Homo sapiens)): 2000 nM | apparent Kd (screen) (ITK (Homo sapiens)): 277 nM | apparent Kd (screen) (GRB10 (Homo sapiens) [24]): 2000 nM | apparent Kd (screen) (SLA (Homo sapiens) [25]): 1600 nM | apparent Kd (screen) (RASA1-N (Homo sapiens) [26]): 709 nM | apparent Kd (screen) (SYK-NC (Homo sapiens) [27]): 905 nM | apparent Kd (screen) (ZAP70-NC (Homo sapiens)): 1650 nM | apparent Kd (screen) (ABL2 (Homo sapiens) [28]): 1500 nM | apparent Kd (screen) (SOCS2 (Homo sapiens)): 2000 nM | apparent Kd (screen) (LCK (Homo sapiens)): 2000 nM | apparent Kd (screen) (SRC (Homo sapiens)): 1140 nM | apparent Kd (screen) (GRB7 (Homo sapiens) [29]): 755 nM | apparent Kd (screen) (YES1 (Homo sapiens)): 724 nM | apparent Kd (screen) (SHC1-PTB (Homo sapiens)): 1150 nM | apparent Kd (screen) (PLCG2-NC (Homo sapiens) [30]): 1390 nM
